According to PMC10931773:

T1: C-reactive protein (recombinant human CRP) (human) (UniProt P02741)
T1 sequence: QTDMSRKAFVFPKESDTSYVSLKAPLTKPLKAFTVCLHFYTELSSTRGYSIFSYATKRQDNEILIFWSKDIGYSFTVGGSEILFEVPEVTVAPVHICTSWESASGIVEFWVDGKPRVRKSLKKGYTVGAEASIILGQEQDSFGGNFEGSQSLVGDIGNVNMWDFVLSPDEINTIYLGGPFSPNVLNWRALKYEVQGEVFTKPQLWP

B1: anti-CRP single-chain variable fragment (scFv) (scFv, V domains shown)
VH: QVQLQQSGAELVKPGASVKLSCTASGFNIKDYYMHWVKQRTEQGLEWIGRIDPEDGETKYAPKFQGKATITADTSSNTAYLQLSSLTSEDTAVYYCARGYYGSEAMDYWGQGTSLTVSS
VL: SIVMTQSHKFMSTSVGDRVSITCKASQDVNTAVAWYQQKPGQSPKLLIYWASTRHTGVPDRFTGSGFGTDYTLTISSVQAEDLALYYCQQHYSTPWTFGGGTKLEIK
B2: monovalent antibody-enzyme complex (anti-CRP scFv-ST joined to GDH-SC) (complex)
VH: B1 VH
VL: B1 VL
B3: anti-CRP scFv-SpyTag (scFv, V domains shown)
VH: B1 VH
VL: B1 VL

target: T1, C-reactive protein (recombinant human CRP) (human); assay: SPR; Biacore T200; CRP immobilised on a CM5 chip by amine coupling (1074 RU); antibodies 0.50-75 nM injected at 30 µL/min, association and dissociation 120 s; 1:1 Langmuir global fit

Binder | Kd | koff | kon
B1 | 4.8 nM | 0.0016 s⁻¹ | 350000 M⁻¹ s⁻¹
B2 | 28.7 nM | 0.0019 s⁻¹ | 67000 M⁻¹ s⁻¹
B3 | 5 nM | 0.0017 s⁻¹ | 340000 M⁻¹ s⁻¹
